US20210163580A1 (NATIONAL HEALTH RESEARCH INSTITUTES, published 2021)
No end group written: not given here. *: point of attachment. Biotin = O=C1N[C@H]2[C@H](CS[C@H]2CCCCC(=O)*)N1

Experiments:
[1] = target: T1, recombinant human RSPO3 protein (human, UniProt Q9BXY4 22-272); assay: BLI (Octet, ForteBio); biotinylated RSPO3 on streptavidin sensors
T1 construct: Used biotinylated on Octet sensors, immobilised on a CM5 chip in Biacore, and coated on ELISA plates; also called hRSPO3; huRSPO3
T1 sequence (looked up): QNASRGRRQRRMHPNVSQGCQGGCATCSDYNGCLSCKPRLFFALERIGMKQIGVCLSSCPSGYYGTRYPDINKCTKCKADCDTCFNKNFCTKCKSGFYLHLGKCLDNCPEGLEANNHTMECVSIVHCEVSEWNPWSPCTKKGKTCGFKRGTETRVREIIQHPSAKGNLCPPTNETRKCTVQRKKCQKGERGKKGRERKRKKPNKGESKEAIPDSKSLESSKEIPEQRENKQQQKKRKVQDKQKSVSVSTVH
Procedure: The streptavidin-coated sensors were coated with 10 μg/ml of biotinylated RSPO3 as described in the handbook of ForteBio. Antibody concentrations were in the range of 0.75 and 93.8 nM. Quantitative kinetic binding analysis was performed with pH-adjusted PBS with 0.5% BSA. All steps were run at 30° C. with a continuous shaking speed at 1000 rpm.
To assess the RSPO3-binding affinities of the antibodies, kinetics assays were performed by the Octetsystems.

RSPO1 [2] = target: T2, RSPO1 (UniProt Q2MKA7 21-263, limits assumed); assay: Western blot: RSPO1-4 on the blot, probed with the hybridoma antibody [B]
RSPO2 [3] = target: T3, RSPO2 (UniProt Q6UXX9 22-243, limits assumed); assay: as above
RSPO4 [4] = target: T4, RSPO4 (UniProt Q2I0M5 20-234, limits assumed); assay: as above
[5] = target: T1, recombinant human RSPO3 protein; assay: ELISA on coated antigen (BSA, RSPO1, RSPO2, RSPO3, RSPO4), absorbance 450 nm [B]
RSPO1 [6] = target: T2, RSPO1; assay: ELISA on coated antigen (BSA, RSPO1, RSPO2, RSPO3, RSPO4), absorbance 450 nm [A]
RSPO2 [7] = target: T3, RSPO2; assay: as above
RSPO4 [8] = target: T4, RSPO4; assay: as above
[9] = target: T1, recombinant human RSPO3 protein; assay: cell-based or functional assay
[10] = target: T1, recombinant human RSPO3 protein; assay: SPR (Biacore T200); hRSPO3 immobilised on CM5 chip, antibody injected, single-cycle, 1:1 model
Procedure: FIG. 7 is a graph showing use of Biacore to measure the binding kinetics of α-RSPO3 Abs-antigen interaction. The binding sensorgrams were generated using a Biacore T200 and then fitted to a simple 1:1 interaction model. […] The association was monitored for 2 min, and the final dissociation time was 15 min hRSPO3 was immobilized on a CMS chip at 27.5 RU.
The binding kinetics between α-RSPO3 Abs and recombinant human RSPO3 protein (hRSPO3) were performed at 25° C. using a Biacore T200 biosensor equipped with a CMS Series S Sensor Chip (GE Healthcare). […] Obtained sensorgrams were corrected by double subtracting the signal obtained on a reference surface and the signal of the running buffer. Sensograms were fit globally with BIAcore T200 evaluation software 3.0 using 1:1 binding model to yield affinity constants (KD values) for α-RSPO3 Abs. Replicate measurements were made in separate experiments, using independently prepared α-RSPO3 Abs dilution series and huRSPO3-coated chip surfaces.

RSPO1 [11] = target: T2, RSPO1; assay: Western blot: RSPO1-4 on the blot, probed with the hybridoma antibody [A]
RSPO2 [12] = target: T3, RSPO2; assay: as above
RSPO4 [13] = target: T4, RSPO4; assay: as above
RENKQQQKKR = target: T5, RENKQQQKKR; assay: PepSet ELISA: biotinylated 10-mer on NeutrAvidin plate, antibody 10 µg/ml, OD450 [C]
T5 construct: member of the PepSet library m27
T5 peptide: Biotin-SGSGRENKQQQKKR
From the text: (§1) FIG. 8 is a set of graphs showing mapping of the α-RSPO3 Ab epitopes on RSPO3 protein by Pep-set.
(§2) The deduced amino acid sequence of RSPO3 (GenBank accession no. NP_116173) was used as the reference sequence to design the PepSet library of biotinylated linear peptides that cover the mature domain of RSPO3. The 121 peptides synthesized by Mimotopes (Victoria, Australia) were 10 amino acids in length and offset by 2 residues in these two formats: Biotin-SGSG-PEPTIDE-NH2 for N-terminal peptide and Biotin-SGSG-PEPTIDE-OH for the C-terminal peptide. The peptides (1-3 mg) were dissolved in 200 microliter 80/20 DMSO/water mixture and further diluted at 1:200 in PBS containing 0.1% BSA and 0.1% sodium azide as working solution. In order to attach different biotinylated peptides on each well of the plates, plates coated with NeutrAvidin and blocked with BSA (Thermo Scientific Pierce, Rockford, Ill.) were utilized. Plates were washed three times with 1× PBS with 0.1% Tween 20 and then […] biotinylated peptide solution was applied to each well of plates. After one hour incubation at room temperature, plates were washed three times again with 1× PBST. α-RSPO3 antibodies at 10 μg/ml were then added to each well of plates and the plates were incubated with agitation for one hour. […] To detect bound anti-RSPO3 antibodies, Goat anti-human IgG-Fc-HPR was then applied to plates for one hour. After removing extra detection antibodies by washing the plates with 1× PBST, 100 μl Tetramethylbenzidine (TMB) substrate solution was added to each well for 20 minutes.

ERGKKGRERK = target: T6, ERGKKGRERK; assay: as above
T6 construct: member of the PepSet library m27
T6 peptide: Biotin-SGSGERGKKGRERK
From the text: as §1, §2

GKKGRERKRK = target: T7, GKKGRERKRK; assay: as above
T7 construct: member of the PepSet library m27
T7 peptide: Biotin-SGSGGKKGRERKRK
From the text: as §1, §2

KGRERKRKKP = target: T8, KGRERKRKKP; assay: as above
T8 construct: member of the PepSet library m27
T8 peptide: Biotin-SGSGKGRERKRKKP
From the text: as §1, §2

T3 sequence (Q6UXX9 22-243 limits assumed): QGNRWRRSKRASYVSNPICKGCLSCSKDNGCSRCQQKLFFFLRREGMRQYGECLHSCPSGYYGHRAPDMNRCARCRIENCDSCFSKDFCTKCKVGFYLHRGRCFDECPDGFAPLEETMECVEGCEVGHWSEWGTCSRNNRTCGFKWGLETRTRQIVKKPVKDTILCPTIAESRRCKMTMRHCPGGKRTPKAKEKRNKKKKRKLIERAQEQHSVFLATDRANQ
T2 sequence (Q2MKA7 21-263 limits assumed): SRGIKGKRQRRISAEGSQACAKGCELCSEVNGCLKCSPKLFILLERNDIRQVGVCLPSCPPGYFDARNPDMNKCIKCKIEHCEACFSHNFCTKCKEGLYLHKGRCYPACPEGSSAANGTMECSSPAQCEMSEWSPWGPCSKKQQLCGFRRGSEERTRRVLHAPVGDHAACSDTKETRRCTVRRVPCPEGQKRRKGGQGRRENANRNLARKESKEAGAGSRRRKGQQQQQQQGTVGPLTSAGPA
T4 sequence (Q2I0M5 20-234 limits assumed): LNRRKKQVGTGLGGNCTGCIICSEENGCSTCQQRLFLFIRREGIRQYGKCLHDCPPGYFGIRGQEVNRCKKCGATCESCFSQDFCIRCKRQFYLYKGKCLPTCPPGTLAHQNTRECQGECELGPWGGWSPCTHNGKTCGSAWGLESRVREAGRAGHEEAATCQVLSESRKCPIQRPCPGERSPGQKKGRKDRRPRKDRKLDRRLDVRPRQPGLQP

B1: reference anti-RSPO3 antibody 131R002 (antibody, V domains shown)
VH: QVQLQESGPELVKPGASVKISCKASGYTFTDYSIHWVKQNHGKSLDWIGYIYPSNGDSGYNQKFKNRATLTVDTSSSTAYLEVRRLTFEDSAVYYCATYFANYFDYWGQGTTLTVSS
VL: DIVLTQSPASLAVSLGQRATISCKASQSVDYDGDSYMNWYQQKPGQPPKLLIYAASNLESGIPARFSGSGSGTDFTLNIHPVEEEDAATYYCQQSNEDPLTFGAGTKLELKR
- Kd [1]: 1.93 nM
- koff [1]: 0.00202 s⁻¹
- kon [1]: 1.05e+06 M⁻¹ s⁻¹

B2: anti-RSPO3 hybridoma antibody B1 (antibody, IgG1, V domains shown)
VH: QIQLQESGPGLVKPSQSLSLTCSVTGYSITSGYYWNWIRQFPGNKLEWMGYISYDGTNNYNPSLKDRISITRDTSMNQFFLKLNSVTTEDTATYYCSVLLIQYFNIWGAGTTVTVSS
VL: DIQMTQSPASLSASVGETVTITCRTSESVNNFLAWFHQKQGKSPQLLVYHAKTLADGVSSRFSGSGSGTQYSLKINSLQPEDFGNYYCQHFWSIPWTFGGGTKLEIKR
notes: Murine hybridoma mAb; also called clone B1
- binding result (RSPO1 [2]): no binding
- binding result (RSPO2 [3]): no binding
- binding result (RSPO4 [4]): no binding
- binding result [5]: binds

B3: anti-RSPO3 hybridoma antibody A4 (antibody, IgG1, V domains shown)
VH: QVQLQESGAELAKPGASVKMSCKASGHTLTYYWMHWVKQRPGQGLEWIGYIDPSTGYSEYNQRFEGKATLTADKSSGTVYMQLSSLTSEDSAVYYCARNGPFAYWGQGTLVTVSA
VL: DNVLTQSPAIMSASPGEKVTMTCSASSSVNYMYWYQQKPGSSPRLLIYDTSKLASGVPVRFSGSGSGTSYSLTISRMEAEDAATYYCQQWSSSPLTFGVGAKLEIKR
notes: Murine hybridoma mAb; also called clone A4; hybridoma A4
- Kd [1]: 27 nM
- koff [1]: 0.000884 s⁻¹
- kon [1]: 32700 M⁻¹ s⁻¹
- binding result (RSPO1 [6]): no binding
- binding result (RSPO2 [7]): no binding
- binding result (RSPO4 [8]): no binding

B4: rosmantuzumab (131R010) (antibody, V domains shown)
VH: QVQLVQSGAEVKKPGASVKVSCKASGYTFTDYSIHWVRQAPGQGLEWIGYIYPSNGDSGYNQKFKNRVTMTRDTSTSTAYMELSRLRSEDTAVYYCATYFANNFDYWGQGTTLTVSS
VL: DIQMTQSPSSLSASVGDRVTITCKASQSVDYDGDSYMNWYQQKPGKAPKLLIYAASNLESGVPSRFSGSGSGTDFTLTISPVQAEDFATYYCQQSNEDPLTFGAGTKLELK
- IC50 in the WNT reporter assay (MDA-MB436 TCF/LEF-Luc, Wnt3a plus hRSPO3) [9]: 58.7 nM
- Kd [10]: 0.02 nM
- koff [10]: 0.000181 s⁻¹
- kon [10]: 9.4e+06 M⁻¹ s⁻¹

B5: anti-RSPO3 hybridoma antibody A6 (antibody, IgG2a, V domains shown)
VH: QVQLQQSGAEIVRSGASVKLSCTASGFSITEYYIHWVKQRPDQGLEWIGMIDPENGDTDYAPKFQGKATMTADTSSNTVNLQLSSLTSEDTAVYYCHGPGPLEYWGQGTTLTVSS
VL: DIVMTQSPLSLPVSLGDQASISCRSSQSIVHSNGNTYLEWYLQKPGQSPNLLIYRVSNRFSGVPDRFNGSGSGTDFTLKISRVEPEDLGVYSCFQASHVPYTFGGGTKLEIKR
notes: Murine hybridoma mAb; also called clone A6; hybridoma A6
- Kd [1]: 10.4 nM
- koff [1]: 0.0025 s⁻¹
- kon [1]: 241000 M⁻¹ s⁻¹
- binding result (RSPO1 [11]): no binding
- binding result (RSPO2 [12]): no binding
- binding result (RSPO4 [13]): no binding
- binding result (RENKQQQKKR): binds
- binding result (ERGKKGRERK): binds
- binding result (GKKGRERKRK): binds
- binding result (KGRERKRKKP): binds
